In US20230235004A1:

Molecular target: recombinant mouse MAdCAM-1 (mouse) (UniProt Q61826)
Experiment: Octet

Sequence of recombinant mouse MAdCAM-1 (mouse) (Q61826 22-364 limits assumed): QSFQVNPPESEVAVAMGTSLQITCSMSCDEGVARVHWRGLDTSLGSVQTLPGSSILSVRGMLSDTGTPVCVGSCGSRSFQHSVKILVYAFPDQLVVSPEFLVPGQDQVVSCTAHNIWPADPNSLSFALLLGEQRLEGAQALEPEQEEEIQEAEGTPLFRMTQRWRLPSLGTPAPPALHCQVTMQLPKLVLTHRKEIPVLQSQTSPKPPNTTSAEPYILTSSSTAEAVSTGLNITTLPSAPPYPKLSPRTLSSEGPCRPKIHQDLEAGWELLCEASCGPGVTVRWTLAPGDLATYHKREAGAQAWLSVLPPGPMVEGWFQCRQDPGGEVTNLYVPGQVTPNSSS

MAdCAM Octet Binding: 0.16
B1: MAdCAM antibody Table 1 clone 1 (scFv)
scFv: EVQLLESGGGLVQPGGSLRLSCAASGFTFSSYGMHWVRQAPGKGLEWVAVISDDGSDKYYADSVKGRFTISRDNSKNTLYLQMNSLRAEDTAVYYCTTSKYYYYYGMDVWGQGTTVTVSSGGGGSGGGGSGGGGSGGGGSDIQMTQSPSSLSASVGDRVTITCQASQDISKSLNWYQQKPGKAPKLLIYAASSLQSGVPSRFSGSGSGTDFTLTISSLQPEDFATYYCQQGYSTPLTFGGGTKVEIK
